Experimental data published in patent US20240269312A1, “ANTIBODY DRUG CONJUGATE, AND PREPARATION METHOD THEREFOR AND USE THEREOF” (SICHUAN KELUN-BIOTECH BIOPHARMACEUTICAL CO., LTD., priority 2021, published 2024).
Residue numbers refer to the chain shown, from its start.

Key:
[1] = biological target: human ROR1 (on the cell surface) (human) (UniProt Q01973); experiment: flow cytometry, Ba/F3-ROR1 cells, D10 as detection antibody
human ROR1 ECD protein [2] = biological target: human ROR1 ECD protein (Homo sapiens, UniProt Q01973); experiment: Dynamic affinity determination by Octet ForteBio; assay type: binding; conditions: for kdis / kon: 1:1 kinetic binding model, UC961 value is an average of three determinations
Sequence of human ROR1 ECD protein (Homo sapiens, UniProt Q01973) (Q01973 30-406 limits assumed): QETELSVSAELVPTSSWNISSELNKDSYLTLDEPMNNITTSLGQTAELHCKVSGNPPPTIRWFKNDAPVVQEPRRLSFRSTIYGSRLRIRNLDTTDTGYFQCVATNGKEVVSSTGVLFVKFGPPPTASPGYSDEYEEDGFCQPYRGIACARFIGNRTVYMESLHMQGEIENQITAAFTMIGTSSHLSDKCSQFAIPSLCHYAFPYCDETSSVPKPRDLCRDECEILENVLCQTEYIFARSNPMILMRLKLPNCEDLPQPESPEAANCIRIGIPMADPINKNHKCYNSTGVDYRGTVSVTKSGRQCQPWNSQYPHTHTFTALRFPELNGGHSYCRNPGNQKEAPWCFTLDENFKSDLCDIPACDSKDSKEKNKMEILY
Method: The dynamic affinities of 19F6_Hu35V1, 3D8_HuC24, 38F8_Hu57 and the positive control PGP-1501 antibody UC961 to human ROR1 ECD protein were determined by Octet ForteBio method. The specific experimental steps were as follows: the anti-human IgG Fc AHC probe (ForteBio) was first bound to the antibody to be tested to a response signal value of 0.8-1.2 nm, and the dynamic affinity was measured by immersing the antibody-coated probe into wells containing human ROR ECD protein at different concentrations (16, 8, 4, 2, 1, 0.5, 0.25, and 0 μg/mL), the binding was conducted for 2-4 minutes, followed by dissociation for 4-6 minutes, 1:1 kinetic binding model was used for all fitting analysis.

[3] = biological target: T1, human ROR1 (on the cell surface) (human, UniProt Q01973 30-937); experiment: flow cytometry, Jeko-1 cells
T1 construct: whole, on cells; Ba/F3 cells carry it by lentiviral transduction; also called Ba/F3-ROR1; ROR1 on the surface of human cells
T1 sequence (Q01973 30-937): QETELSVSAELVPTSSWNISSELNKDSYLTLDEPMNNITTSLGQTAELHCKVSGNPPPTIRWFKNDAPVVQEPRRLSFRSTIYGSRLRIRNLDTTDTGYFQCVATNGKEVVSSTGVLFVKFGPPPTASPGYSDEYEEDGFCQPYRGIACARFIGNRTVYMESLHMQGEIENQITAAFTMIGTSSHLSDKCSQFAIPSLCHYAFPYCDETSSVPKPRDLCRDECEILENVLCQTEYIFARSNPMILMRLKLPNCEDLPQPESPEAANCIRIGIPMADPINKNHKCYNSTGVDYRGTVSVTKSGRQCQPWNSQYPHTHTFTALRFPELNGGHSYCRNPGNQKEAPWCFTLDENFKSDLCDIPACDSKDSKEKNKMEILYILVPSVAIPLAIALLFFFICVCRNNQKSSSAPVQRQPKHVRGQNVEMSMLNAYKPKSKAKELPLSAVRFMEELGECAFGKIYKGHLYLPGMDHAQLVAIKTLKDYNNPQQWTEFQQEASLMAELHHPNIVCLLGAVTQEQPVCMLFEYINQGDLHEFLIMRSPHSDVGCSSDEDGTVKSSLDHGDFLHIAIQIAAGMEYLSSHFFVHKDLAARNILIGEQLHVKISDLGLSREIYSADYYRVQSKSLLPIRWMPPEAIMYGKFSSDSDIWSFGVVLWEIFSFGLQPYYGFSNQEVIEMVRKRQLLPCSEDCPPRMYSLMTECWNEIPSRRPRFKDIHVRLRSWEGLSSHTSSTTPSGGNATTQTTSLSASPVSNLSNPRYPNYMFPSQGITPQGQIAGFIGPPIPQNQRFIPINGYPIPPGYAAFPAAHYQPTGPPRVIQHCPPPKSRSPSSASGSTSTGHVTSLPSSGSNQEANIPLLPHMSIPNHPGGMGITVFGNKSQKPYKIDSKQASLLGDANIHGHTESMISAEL

[4] = biological target: T1, human ROR1 (on the cell surface); experiment: flow cytometry, HT-29 cells
Method: (§1) The affinities of 19F6_Hu35V1, 3D8_HuC24 and 38F8_Hu57 to ROR1 on the surface of human cells were determined by flow cytometry.
(§2) In addition to Ba/F3-ROR1 overexpression cells, human mantle cell lymphoma cell line Jeko-1 (Nanjing Cobioer Biosciences), human colon cancer cell line HT-29 (the Cell Bank of the Chinese Academy of Sciences), human lung cancer cell line A549 (the Cell Bank of the China Academy of Sciences) were also used for flow cytometry analysis. Anti-ROR1 antibody UC961 (the VH and VL of antibody UC961 were SEQ ID NO: 5 and 6 disclosed in WO2018237335A1, respectively) and anti-TNP antibody were used as positive control and negative control, respectively. Ba/F3-ROR1, Jeko-1, HT-29 and A549 cells were incubated with different concentration gradients of the purified humanized antibodies on ice for 30 minutes, respectively, washed with flow buffer (PBS+2% FBS) twice, then incubated with goat anti-human fluorescent secondary antibody (Jackson ImmunoResearch) on ice for 30 minutes, and finally loaded on the machine for detection.

[5] = biological target: T1, human ROR1 (on the cell surface); experiment: flow cytometry, HT-29 cells; remark: listed apart in the source
Method: as §1, §2

[6] = biological target: T1, human ROR1 (on the cell surface); experiment: flow cytometry, Ba/F3-ROR1 cells
Method: as §1, §2

[7] = biological target: T1, human ROR1 (on the cell surface); experiment: flow cytometry, Jeko-1 cells; remark: listed apart in the source
Method: as §1, §2

human ROR1 ECD protein [8] = biological target: T2, human ROR1 ECD protein (human, UniProt Q01973 30-406); experiment: BLI (Octet ForteBio), antibody on AHC probe, ROR1 ECD in solution, 1:1 model; average of three determinations
T2 construct: extracellular domain; also called human ROR ECD protein
T2 sequence (Q01973 30-406): as the sequence (Q01973 30-406 limits assumed) above

[9] = biological target: T1, human ROR1 (on the cell surface); experiment: flow cytometry, Jeko-1 cells; remark: listed apart in the source
Method: as §1, §2

[10] = biological target: T1, human ROR1 (on the cell surface); experiment: flow cytometry, A549 cells
Method: as §1, §2

[11] = biological target: T1, human ROR1 (on the cell surface); experiment: flow cytometry, Ba/F3-ROR1 cells; remark: listed apart in the source
Method: as §1, §2

[12] = biological target: T1, human ROR1 (on the cell surface); experiment: flow cytometry, HT-29 cells; remark: listed apart in the source
Method: as §1, §2

[13] = biological target: T1, human ROR1 (on the cell surface); experiment: flow cytometry, A549 cells; remark: listed apart in the source
Method: as §1, §2

[14] = biological target: T1, human ROR1 (on the cell surface); experiment: flow cytometry, Ba/F3-ROR1 cells; remark: listed apart in the source
Method: as §1, §2

[15] = biological target: T1, human ROR1 (on the cell surface); experiment: flow cytometry, A549 cells; remark: listed apart in the source
Method: as §1, §2

human ROR1 ECD protein [16] = biological target: T2, human ROR1 ECD protein; experiment: BLI (Octet ForteBio), antibody on AHC probe, ROR1 ECD in solution
Method: The dynamic affinities of 19F6_Hu35V1, 3D8_HuC24, 38F8_Hu57 and the positive control PGP-1501 antibody UC961 to human ROR1 ECD protein were determined by Octet ForteBio method.

Sequence of human ROR1 (on the cell surface) (human) (Q01973 30-937): as the sequence (Q01973 30-937) above

B1: Anti-human ROR1 antibody D10 (antibody, from another filing, V domains shown)
VH: QVQLKESGPGLVAPSQTLSITCTVSGFSLTSYGVHWVRQPPGKGLEWLGVIWAGGFTNYNSALKSRLSISKDNSKSQVLLKMTSLQTDDTAMYYCARRGSSYSMDYWGQGTSVIVSS
VL: EIVLSQSPAITAASLGQKVTITCSASSNVSYIHWYQQRSGTSPRPWIYEISKLASGVPVRFSGSGSGTSYSLTISSMEAEDAAIYYCQQWNYPLITFGSGTKLEIQ
- positive rate [1]: 100%

B2: 3D8_HuC24: humanized anti-ROR1 antibody; VH SEQ ID NO:9, VL SEQ ID NO:10, human IgG1 heavy and kappa light chain constant regions (antibody, V domains shown)
VH: EVQLVESGGGLVQPGGSLRLSCAASGFTFSSYAMSWVRQAPGKGLEWVASINSGGSTYYPDSVKGRFTISRDNAKNSLYLQMNSLRAEDTAVYYCARVNYYGYGDYAMDYWGQGTLVTVSS
VL: DIQMTQSPSSLSASVGDRVTITCQASQDISNYLTWFQQKPGKSPKTLIHRANRLVTGVPSRFSGSGSGTDFTFTISSLQPEDIATYYCLQYDEFPYTFGGGTKVEIK
modifications: human IgG1 and kappa constant regions; 3D8_HuC24 VH; 3D8_HuC24 VL
- kdis (human ROR1 ECD protein [2]): 0.0153 s⁻¹
- kon (human ROR1 ECD protein [2]): 586000 M⁻¹ s⁻¹
- affinity versus control antibody UC961 (human ROR1 ECD protein [2]; versus UC961): comparable

B3: 38F8_Hu57: humanized anti-ROR1 antibody; VH SEQ ID NO:17, VL SEQ ID NO:18, human IgG1 heavy and kappa light chain constant regions (antibody, V domains shown)
VH: EVQLVESGGGLVQPGGSLRLSCAASGFTFSNYAMSWVRQAPEKRLEWVASISSGGPTYYPDSVKGRFTVSRDNSKNTLYLQMNSLRAEDTAVYYCARGYRYDVNWYFDVWGAGTMVTVSS
VL: B2 VL with F71Y, T85I
modifications: human IgG1 and kappa constant regions; 38F8_Hu57 VH; 38F8_Hu57 VL
- kdis (human ROR1 ECD protein [2]): 0.00242 s⁻¹
- kon (human ROR1 ECD protein [2]): 241000 M⁻¹ s⁻¹
- affinity versus control antibody UC961 (human ROR1 ECD protein [2]; versus UC961): comparable

B4: Anti-ROR1 antibody UC961 (antibody, V domains shown)
VH: QVQLQESGPGLVKPSQTLSLTCTVSGYAFTAYNIHWVRQAPGQGLEWMGSFDPYDGGSSYNQKFKDRLTISKDTSKNQVVLTMTNMDPVDTATYYCARGWYYFDYWGHGTLVTVSS
VL: DIVMTQTPLSLPVTPGEPASISCRASKSISKYLAWYQQKPGQAPRLLIYSGSTLQSGIPPRFSGSGYGTDFTLTINNIESEDAAYYFCQQHDESPYTFGEGTKVEIK
- EC50 [3]: 0.36 nM
- EC50 [4]: 0.37 nM
- EC50 [5]: 0.2 nM
- EC50 [6]: 0.31 nM
- EC50 [7]: 0.06 nM
- Kd (human ROR1 ECD protein [8]): 8.73 nM
- koff (human ROR1 ECD protein [8]): 0.0112 s⁻¹
- kon (human ROR1 ECD protein [8]): 1.26e+06 M⁻¹ s⁻¹
- EC50 [9]: 0.14 nM
- EC50 [10]: 0.21 nM
- EC50 [11]: 0.3 nM
- EC50 [12]: 0.21 nM
- EC50 [13]: 0.46 nM
- EC50 [14]: 1.07 nM
- EC50 [15]: 0.16 nM

B5: 19F6_Hu35V1 (antibody, human IgG1, kappa, V domains shown)
VH: QVQLQESGPGLVKPSQTLSLTCTVSGYSITSDYAWNWIRQFPGKGLEWIGYISYSGSIRYNPSLKSRVTISRDTSKNQFSLKLSSVTAADTAVYYCARGEITYYFDYWGQGTLVTVSS
VL: ETTLTQSPAFMSATPGDKVTISCKASTSIDDDMNWYQQKPGEPPKLIISEGNTLRPGIPPRFSSSGYGTDFTFTINKIKSEDAATYYCLQSNDLPLTFGQGTKLEIKR
notes: Humanized anti-human ROR1 antibody, human IgG1/kappa, expressed in Expi293F cells and purified with Protein A
- fold stronger affinity (KD) than control antibody UC961 (human ROR1 ECD protein [16]): 5.4 fold

B6: 19F6_Hu35V1: humanized anti-ROR1 antibody; VH SEQ ID NO:1, VL SEQ ID NO:2, human IgG1 heavy and kappa light chain constant regions (antibody, V domains shown)
VH: B5 VH
VL: ETTLTQSPAFMSATPGDKVTISCKASTSIDDDMNWYQQKPGEPPKLIISEGNTLRPGIPPRFSSSGYGTDFTFTINKIKSEDAATYYCLQSNDLPLTFGQGTKLEIK
modifications: human IgG1 and kappa constant regions; 19F6_Hu35V1 VH; 19F6_Hu35V1 VL
- kdis (human ROR1 ECD protein [2]): 0.000863 s⁻¹
- kon (human ROR1 ECD protein [2]): 538000 M⁻¹ s⁻¹
- dissociation rate versus control antibody UC961 (as shown by the Kdis value) (human ROR1 ECD protein [2]; versus UC961): significantly slower
